According to patent US20040023887A1 (published 2004):
No end group written: not given here.

Tests used:
[1] = molecular target: T1, soluble IGF-1R (recombinant human IGF-1R extracellular domain, R&D Systems Cat. # 391-GR/CF) (human, UniProt P08069 31-935); test: phage ELISA
T1 construct: extracellular domain; Bought protein; coated on plates (phage ELISA, TRF) or Eu-labelled (TR-FRET); also called sIGF-1R; rhIGF-1R

[2] = molecular target: T2, soluble human insulin receptor-immunoglobulin heavy chain chimera (human, UniProt P06213 28-956, limits assumed); test: phage ELISA
T2 construct: extracellular domain; also called sIR-Fc; IR (prepared according to Bass et al., 1996); not shown: immunoglobulin heavy chain constant domains (Bass et al., 1996)

Binder	ratio over background [1] [ratio]	ratio over background [2] [ratio]	IR/IGF-1R ratio comparison [2] [ratio]
LGYQEPFQQNFYDWFVRQVSGAENAG (on phage) [H2CA-3-E8-IGFR]	6.3	2.2	–
RGAVAGFHDQFYDWFDRQVSRVHKFG (on phage) [H2CA-4-H9-IGFR]	5.6	–	–
EAASLGSQDRNFYDWFVRQVV (on phage) [A6S-2-D11-IR]	37.4	13.5	–
PGTDLGFYQALRCVVIQGACD (on phage) [20E2B-2-B2-IGFR]	4.9	0.6	–
LQPCSGFYECIERLIGVKLSG (not fully specified (bridges); cysteine pairing not given here, on phage) [20E2Bβ-4-G7-IR]	25.2	1.6	–
FYDAIDQLVRGSARAGGTRD (on phage) [R20α-3-20E2-IR]	39.9	3.1	–
RLFYCGIQALGANLGYSGCV (on phage) [R20α-4-20A12-IR]	39.9	2.4	–
KLHNLMFYYGLQRLVWGAGLG (on phage) [20E23-4-H3-IGFR]	14.8	1.1	–
RGMKEEVLVGGSTDPFYHKLSELLQGS (on phage) [B6Hα-3-F11-IR]	18.7	1.6	–
VGRASGFPENFYDWFGRQLSLQSGEQ (on phage) [M2CA-4-H6-IGFR]	10.5	0.7	–
FRTLAAQHDSFYDWFDRQVSGAAGER (on phage) [H2CA-3-C11-IGFR]	3.3	1.6	–
RGCNDDGGKGWSDDPFYHKLSELICGG (on phage) [B6Hα-1-A2-IR]	–	1	–
VGYQGQGDENFYDWFIRQVSGRLGVQ (on phage) [H2CA-4-F5-IGFR]	9.7	0.8	–
SSYGCDGFYLMLFSLGLVASQELEC (on phage) [20C-3-A1-IGFR]	20.8	1.5	–
PDLHKGFYAQLAQLIRGQLLS (on phage) [20E2B-3-E3-IGFR]	16.3	1.3	–
GGTEVDFYRALERLVRGQLGL (on phage) [20E2B-3-D8-IGFR]	17.7	1.6	–
GRTMAVMAAGGPDDPFYHKLSELVQGG (on phage) [B6Hα-2-D6-IR]	–	1	–
DRDFCRFYERLTALVGGQVDGGWPC (on phage) [20C-3-F6-IGFR]	26.1	1.9	–
IWATGDFYRLLSQLVMGRVGT (on phage) [20E2B-2-28-IGFR]	5.7	0.8	–
DRAFYNGLRDLVGAVYGAWD (on phage) [R20α-4-20C11-IR]	30.8	3	–
IQQELTFYDLLHRLVRSELGS (on phage) [20E2B-3-D2-IGFR]	12.4	1.1	–
VATSQGFYSGLSELLQGGGNV (on phage) [20E2B-3-E12-IGFR]	6	0.8	–
RGQSDAFYSGLWALIGLSDG (on phage) [R20β-4-A6-IR]	25.9	1.5	–
RCEEKQAEVGPSSDPFYHKMSELLGCR (on phage) [B6Ha-3-E9-IR]	24.2	1.7	–
SAAQLFFQESFYDWFLRQVAESSQPN (on phage) [H2CA-4-F11-IGFR]	6.8	1	–
RGIVAMVEATEVGSDHDPFYHKLSELVQGS (on phage) [B6Hα-2-C7-IR]	–	1	–
QFYGCLLDLSLGVPSFGWRRRCITA (on phage) [20C-3-A4-IGFR]	8.8	1.2	–

Binder	ratio over background [1] [ratio]	ratio over background [2] [ratio]	IR/IGF-1R ratio comparison [2] [ratio]
TSEVQRRSQDNFYDWFVAQVA (on phage) [A6S-3-E2-IR]	24.7	9.8	–
QGGSASFYDAIDRLLRMRIGG (on phage) [20E2A-4-F11-IGFR]	18.8	1.3	–
SACQFDCHENFYDWFARQVSGGAAYG (on phage) [H2CA-4-E8-IGFR]	9.2	1	–
GFREGSFYDWFQAQVT (on phage) [E4Dα-2-D11-IR]	11.1	3.3	–
LRIANLFYQRLWDLAFGGGG (on phage) [20E2B-3-E8-IGFR]	16.7	1.5	–
HLADGQFHEKFYDWFERQISSRCNDC (on phage) [E2CA-3-E11-IGFR]	–	1	–
YSCGDGFYSLLSDLLGGQFRC (on phage) [20E22-4-H12-IGFR]	9.7	0.8	–
YRGMLVLGRISGGAGKAASERPARIGQKVSAVNFYDWFV (on phage) [A6L-0-E3-IR]	26	–	–
SQAGSAFYAWFDQVLRTVHSA (on phage) [20E2Bβ-4-G6-IR]	6.2	–	–
GNGDGMFYQLLSLLVGRDMHV (on phage) [20E2B-3-C2-IGFR]	8.9	0.6	–
LGVTDGFYAALGYLIHGVGQF (on phage) [20E2B-3-D11-IGFR]	12.2	1.6	–
QGNVLDFYGWIGRLLAKQGSD (on phage) [20E2B-3-D12-IGFR]	6.2	0.9	–
GVRAMSFYDALVSVLGLGPSG (on phage) [20E2B-1-A6-IGFR]	18.1	1.1	–
AICDAGFHEHFYDWFALQVSDCGRQS (on phage) [H2CA-2-B11-IGFR]	4.6	1.6	0.3
YRGMLVLGRSSDGAGKVAFERPARIGQTVFAVNFYDWFV (on phage) [A6L-0-E6-IR]	31	1.8	–
QPDHSYFYSLLQELVGSEERL (on phage) [20E2B-4-F9-IGFR]	14.7	–	–
QPAPDGFYSALMKLIGRGGVS (on phage) [20E2B-3-C8-IGFR]	15.6	1.8	–
FFYDCLAALLQGVARYHDLCAVEIT (on phage) [20C-4-C7-IGFR]	28	1.3	–
RFSTDGFYQYLLALVGGGPVG (on phage) [20E2B-1-A11-IGFR]	9.5	1	–
PVGVQGFYEGLSRLVLGRGGW (on phage) [20E2B-4-F8-IGFR]	7.3	0.8	–
AQPCGGFYGLLEQLVGRSVCD (on phage) [20E2B-4-F10-IGFR]	17.3	2.2	–
VEGRGLFYDLLRQLLARRQNG (on phage) [20E2B-3-C6-IGFR]	16.8	1.1	–
TFYSCLASLLTGTPQPNRGPWERCR (on phage) [20C-3-G3-IGFR]	32.3	1.2	–
VERSASSQDGNFYDWFVVQIR (on phage) [A6S-2-D1-IR]	30.6	12	–
NSRDGGFYLQLERLLGFPVTG (on phage) [20E2B-3-D4-IGFR]	7.9	0.8	–
ICTGQGFYQVLCGLLRGTSAR (on phage) [20E2B-2-B3-IGFR]	5.3	0.7	–
